Reference: PMC4934132

Biological target: HPV16 L1 pentamers (L1 assembly mutant C428S) (HPV16)
Test: electron microscopy

Work on “HPV16 L1 pentamers (L1 assembly mutant C428S) (natural protein)” yielded a stoichiometry N of 5.
